Laboratory results as given in PMC5905287, “Synthesis and in vitro biochemical evaluation of oxime bond-linked daunorubicin–GnRH-III conjugates developed for targeted drug delivery” (Beilstein Journal of Organic Chemistry, 2018).
Like-named read-outs stand apart in the source and are kept apart here. Non-standard residues stand in square brackets, D forms with d. Residues, ends and D or L forms follow the SMILES beside them. *: point of attachment. Daunorubicin(13-NOCH2CO) = COc1cccc2c1C(=O)c1c(O)c3c(c(O)c1C2=O)C[C@@](O)(C(C)=NOCC(=O)*)C[C@@H]3O[C@H]1C[C@H](N)[C@H](O)[C@H](C)O1; pGlu = O=C1CC[C@@H](C(=O)O)N1; Butyryl = CCCC(=O)*

Tests used:
[1] = tested on: MCF-7 human breast cancer cell line; assay: In vitro cytostatic effect, alamarBlue assay, MCF-7; format: cell-based
Text: Cell lines often function as the first model system of choice to study biological processes or to test the efficiency of drugs or drug conjugates and their cytotoxic effects. Immortal cell lines offer various benefits, for instance they are easy to handle, cost-effective and provide consistent sample and reproducible results. Nevertheless, cell lines also present the disadvantage that after a period of continuous growth, cell characteristics can change and dedifferentiate in culture. The serial passaging can cause genotypic and phenotypic variations and the state of confluency can also affect gene expression pattern in some cell lines. Due to this, the usage of internal standards during the evaluation of new potential candidates might be necessary to ensure comparability with previous results. The cytostatic effect of the novel GnRH-III bioconjugates was determined on HT-29 human colon cancer and MCF-7 human breast cancer cell lines by alamarBlue® assay. For a better comparison, the well-studied bioconjugates GnRH-III–[^8Lys(Dau=Aoa)] (K1) and GnRH-III–[^4Lys(Bu), ^8Lys(Dau=Aoa)] (K2) were used as positive controls and internal standards. The corresponding IC50 values were calculated by using nonlinear regression (sigmoidal dose response) (Figure 3, Table 2). Unfortunately, the D-Trp containing compounds 3 and 6 started to precipitate in both cell culture media at higher concentrations limiting the concentration down to a maximum of 10 µM. This effect could not be prevented by using DMSO instead of ddH2O for the preparation of the stock solutions. Unfortunately, the lower concentration range with a maximum of 10 µM was not sufficient to achieve the dose-response. […] Nevertheless, the replacement of ^6Asp by D-Asp, D-Glu or D-Trp led to a decreased cytostatic effect on the estimated cancer cell lines.
MCF-7 human breast adenocarcinoma cells were cultured in Dulbecco’s Modified Eagle Medium (DMEM, Lonza, Basel, Switzerland), supplemented with 10% (v/v) fetal bovine serum (FBS, Lonza), L-glutamine (2 mM, Lonza), non-essential amino acids (NEAA, Sigma-Aldrich Kft), sodium pyruvate (1 mM, Lonza) and penicillin-streptomycine (Lonza). […]
Cells were seeded to 96-well plates (Sarstedt, Nümbrecht, Germany, 5 × 10^3 cells/well) one day prior to the treatment in complete cell medium. […] Fluorescence was detected using Synergy H4 multi-mode microplate reader (BioTek, Winooski, VT, USA), excitation and emission wavelengths were set to 570 and 620 nm, respectively. Cytostasis was measured using 4 parallels, each experiment was repeated twice. Cytostatic effect (and IC50 values) were calculated by using nonlinear regression (sigmoidal dose response) with Origin Pro8 (OriginLab Corp., Northampton, MA, USA.).

[2] = Degradation in rat liver lysosomal homogenate (LC-MS); format: in vitro ADME; details: for incubation time after which the smallest Dau-containing metabolite H-Lys(Dau=Aoa)-OH was detected: pH 5
Description: In order to gain insight into the cellular release of the drug, the degradation of the Dau–GnRH-III derivatives 1–6, K1 and K2 was determined in the presence of rat liver lysosomal homogenate at 37 °C. […] However, the degradation level and the cleavage sites within the GnRH-III sequence differ considerably depending on the incorporated amino acids, whereby the hydrolyses of the C-terminus (H-Gly-NH2 and H-Pro-Gly-NH2) occurred first in all eight GnRH-III derivatives. Due to the high chemical and enzymatic stability of the oxime bond, no free Dau was detected by LC–MS. In accordance with our previous results, the digestion of the two peptides containing L-Asp in position 6 (K1, K2) provided the smallest Dau-containing metabolite (H-Lys(Dau=Aoa)-OH, m/z 729.36 [M + H]^+). This metabolite could already be detected after 1 hour of incubation in case of K2 and after 2 hours in case of K1. […] It might be assumed that D-Trp of GnRH-III–[^4Lys(Bu), ^6D-Tpr, ^8Lys(Dau=Aoa)] (6) is also accepted at the cleavage site, but due to the prior hydrolysis of the ^7Trp-^8Lys(Dau=Aoa)-bond an evidential fragment has not been detected. A reason for these diversities might be the subsite specificities of the lysosomal proteases. For instance, lysosomal cysteine proteases also known as cathepsins show a broad substrate specificity. […] For instance, the analyzed fragments of the ^6L-Asp derivatives gave clear hints for the presence of endopeptidases, while the digestion of the ^6D-Aaa compounds 1–3 gave only fragments which evidence the activity of exomono- and/or dipeptidases. Moreover, the obtained results for the bioconjugates that contain ^4Lys(Bu) (K2, 4–6) instead of serine indicate a proteolytic cleavage by lysosomal endopeptidases, which might be of great importance for the release of the smallest Dau-containing metabolite.
The rat liver lysosomal homogenate was prepared as previously described. The protein concentration was determined by Qubit Protein Assay Kit according to the manufacturer’s protocol (ThermoFisher Scientific, Waltham, MA, USA). The bioconjugates were dissolved in ddH2O to a concentration of 5 µg/µL. The reaction was carried out in 0.2 M NaOAc buffer (pH 5), with an identical concentration of bioconjugate and rat liver lysosomal homogenate (0.25 µg/µL). The reaction mixtures were incubated at 37 °C and aliquots of 15 µL were taken at 5 min, 1 h, 2 h, 4 h, 8 h and 24 h and quenched with 2 µL of acetic acid. The analysis of the samples was performed by LC–MS.

Structure (SMILES): COc1cccc2c1C(=O)c1c(O)c3c(c(O)c1C2=O)C[C@@](O)(C(C)=NOCC(=O)NCCCC[C@H](NC(=O)[C@H](Cc1c[nH]c2ccccc12)NC(=O)[C@@H](CCC(=O)O)NC(=O)[C@H](Cc1c[nH]cn1)NC(=O)[C@H](CO)NC(=O)[C@H](Cc1c[nH]c2ccccc12)NC(=O)[C@H](Cc1c[nH]cn1)NC(=O)[C@@H]1CCC(=O)N1)C(=O)N1CCC[C@H]1C(=O)NCC(N)=O)C[C@@H]3O[C@H]1C[C@H](N)[C@H](O)[C@H](C)O1 [compound 2, [6D-Glu, 8Lys(Dau=Aoa)]] ([pGlu]HWSH[dE]WK(Daunorubicin(13-NOCH2CO))PG-NH2)
- IC50 ([1]; 24 h): 6.8 ± 1 µM
- incubation time after which the smallest Dau-containing metabolite H-Lys(Dau=Aoa)-OH was detected [2]: 24 h

Structure (SMILES): CCCC(=O)NCCCC[C@H](NC(=O)[C@H](Cc1c[nH]c2ccccc12)NC(=O)[C@H](Cc1c[nH]cn1)NC(=O)[C@@H]1CCC(=O)N1)C(=O)N[C@@H](Cc1c[nH]cn1)C(=O)N[C@H](CCC(=O)O)C(=O)N[C@@H](Cc1c[nH]c2ccccc12)C(=O)N[C@@H](CCCCNC(=O)CON=C(C)[C@]1(O)Cc2c(O)c3c(c(O)c2[C@@H](O[C@H]2C[C@H](N)[C@H](O)[C@H](C)O2)C1)C(=O)c1c(OC)cccc1C3=O)C(=O)N1CCC[C@H]1C(=O)NCC(N)=O [compound 5, [4Lys(Bu), 6D-Glu, 8Lys(Dau=Aoa)]] ([pGlu]HWK(Butyryl)H[dE]WK(Daunorubicin(13-NOCH2CO))PG-NH2)
- IC50 ([1]; 24 h treatment, then 48 h in complete medium, alamarBlue, mean ± SE, read-out: MCF-7 IC50): 7 ± 1.2 µM
- incubation time after which the smallest Dau-containing metabolite H-Lys(Dau=Aoa)-OH was detected ([2]; rat liver lysosomal homogenate, 37 °C): 24 h
- release of the smallest Dau-containing metabolite H-Lys(Dau=Aoa)-OH ([2]; rat liver lysosomal homogenate, 37 °C, up to 24 h): identified in small amount
